Measured values reported in the supplement of paper PMC10567573.

B1: MFF (parent)
chain: YTEGISQRMRVPEKLKVAPPNADL
B2: ZNF24 (parent)
chain: THTKEQILELVVLEQFVAILPKEL

Variants of: B1
Assay: protein stability index of a GFP-peptide fusion (GPS, HEK-293T) (PSI 1-6); higher = more stable
Settings: c terminus: a fixed tail appended
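Note: lentivirally expressed fusions sorted by FACS into six bins by GFP to DsRed ratio, PSI derived from sequencing read proportions per bin multiplied by bin number.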

Protein stability index, by site and new letter:
Y1: K 4.27, Q 4.41, P 4.64, A 4.62, L 4.21, E 4.55, T 4.31, S 4.48, H 4.52, I 3.87, F 2.52, R 4.22, G 4.57, W 4.21, M 4.59, C 4.21, D 4.48, V 4.25, N 4.67
R8: A 2.82, C 2.47
T2: E 4.85, G 3.85, S 3.81, Y 3.2, W 3.17, R 3.88, D 4.18, F 3.2, A 2.72, L 2.13, I 1.65, C 2.65, N 3.69, K 3.92, V 2.46, H 2.69, Q 3.03, M 3.46, P 3.48
Q7: D 3.43, C 2.9, H 1.81, R 2.81, T 2.71, V 3.21, A 2.97, L 2.77, G 2.65, S 2.45, P 3.4, E 3.26, I 2.85, Y 1.75, W 2.21, K 2.39, N 2.74, F 1.82, M 2.59
E3: Q 3.01, P 2.29, T 2.56, G 2.3, I 2.42, V 2.44, H 2.92, D 3.24, N 3.3, A 2.96, F 1.9, K 2.41, L 2.58, Y 2.69, C 2.28, W 1.53, M 2.48, R 3.03, S 2.54
I5: N 4.03, H 3.81, Y 2.41, R 3.78, Q 4.44, M 3.4, W 2.75, K 4.18, C 4.16, S 4.16, P 4.33, T 3.9, V 3.63, D 4.55, L 3.06, A 4.19, E 4.78, F 2.13, G 3.72
S6: C 2.6, N 2.93, G 2.86, T 2.98, M 2.09, D 3.51, V 2.19, E 3.91, W 2.52, K 2.45, L 2.85, Y 3.1, P 2.29, H 2.63, A 2.76, I 2.51, F 2.14, Q 2.71, R 2.94
G4: H 3.46, I 3, V 3.21, N 3.75, T 3.45, K 3.63, D 4.46, W 2.25, R 3.72, C 3.47, E 3.61, M 2.52, S 3.88, L 2.47, A 3.9, F 2.32, P 3.79, Y 2.69, Q 3.5

Variants of: B2
Assay: as above
Settings: c terminus: a fixed tail appended

Protein stability index of substitutions, site by site:
E14: T 2.64, P 2.12, W 3.05, K 2.61, V 1.16, Q 2.97, L 2.05, M 2.67, I 3.12, N 3.68, Y 3.47, R 2.95, S 2.53
F16: W 2.54, Q 2.01, E 2.03, P 1.94, S 2.27, A 1.91, C 1.77, K 1.95, R 1.99, N 2.21, Y 1.76, L 3.14, D 2.33, G 1.69, V 2.02, M 2.5, T 1.82, H 2.13, I 1.43
V17: K 1.54, N 1.72, G 1.52, F 2.47, T 1.97, L 2.47, Q 2.02, R 1.66, E 1.91, Y 2.53, H 2.25, W 2.19, M 2.31, S 2.95, C 2.49, I 2.94, D 1.71, P 1.94, A 3.14
K22: N 2.39, R 2.78, V 2.71, T 2.89, S 3.45, D 3.16, G 4.16, F 3.51, Q 2.7, H 2.12, M 3.15, A 2.63, W 2.08, C 2.67, P 2.18, Y 2.9
A18: N 2.67, L 2.04, R 2.05, V 2.58, Q 2.48, E 2.1, S 1.95, W 2.51, G 2.88, C 3.45, D 2.32, K 2.49, Y 2.59, M 1.65, T 2.2, F 1.44, P 2.48, H 3.02
L20: H 1.67, N 1.83, S 2.33, R 2.61, Y 1.46, Q 3.05, I 3.78, C 2.24, P 2.78, D 2.6, F 2.83, V 2.19, W 4.08, E 2.23, K 1.63, T 2.44, A 3.07, G 1.94, M 1.95
I19: M 3.34, C 2.61, K 2.14, A 1.98, E 2.37, G 1.52, Y 2.18, D 1.77, N 1.7, V 4.1, S 1.95, H 2.32, T 1.8, Q 2.01, L 2.38, W 1.85, P 1.73, F 2.22, R 2.16
E23: W 3.51, S 2.01, F 2.69, M 3.72, H 3.33, I 2.56, L 1.68, Y 3.09, R 2.77, P 3.16, V 2.76, D 2.29, N 2.97, G 3.15, Q 2.54, A 2.59, K 1.64, C 3.17, T 1.75
L24: K 2.33, H 2.66, R 2.47, N 1.06, A 2.57, D 1.67, E 1.7, G 2.16, I 2.4, Y 3.41, S 2.86, W 2.54, M 2.8, C 2.88, Q 1.81, P 4.16, F 3.54, T 2.7, V 4.07
P21: Y 3.02, C 3.76, A 3.78, M 3.76, R 3.28, Q 2.66, H 3.6, W 3.12, G 2.21, S 1.42, N 3.62, I 1.92, V 2.28, E 2.23, D 4.16, F 1.92, K 3.31, L 2.44, T 2.57
Q15: K 1.75, E 2.55, P 2.4, C 1.66, S 2.93, W 2.82, I 2.87, D 1.91, F 2.79, N 2.81, M 2.63, V 3.51, R 2.81, L 2.44, A 2, H 2.53, G 2.95, T 3.75, Y 2.18
